Results on four molecules are retold here after patent US20050164323A1 (Pfizer, published 2005).

Sequences and labels used below:
B1: Peptide 1 (FARKGSLRQ), substrate, pseudo-substrate PKC alpha (peptide)
peptide: FARKGSLRQ
B2: Peptide 2 (RFARKGSLRQKNV), substrate, pseudo-substrate PKC alpha (peptide)
peptide: RFARKGSLRQKNV
B3: Peptide 3 (LKRSLSEM), substrate, Serum Response Factor (peptide)
peptide: LKRSLSEM
B4: Peptide 4 (RTPKLARQASIELPSM), substrate, lymphocyte-specific protein 1 (peptide)
peptide: RTPKLARQASIELPSM

Sequence of PKC-θ kinase domain (PKC-θ KD; amino acid residues 362 to 706), C-terminal hexa-histidine tag, expressed in … (Q04759 other isoform, or with tags, fused parts or gaps limits assumed): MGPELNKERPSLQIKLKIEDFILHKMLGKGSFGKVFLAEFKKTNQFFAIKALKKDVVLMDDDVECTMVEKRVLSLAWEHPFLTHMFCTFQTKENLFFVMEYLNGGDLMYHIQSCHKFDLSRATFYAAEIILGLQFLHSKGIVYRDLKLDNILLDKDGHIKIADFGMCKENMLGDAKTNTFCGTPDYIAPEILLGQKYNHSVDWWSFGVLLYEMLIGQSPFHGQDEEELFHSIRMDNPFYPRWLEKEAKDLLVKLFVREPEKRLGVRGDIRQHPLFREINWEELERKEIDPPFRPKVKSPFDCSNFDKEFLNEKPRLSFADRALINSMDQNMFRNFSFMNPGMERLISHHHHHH

The assay concerns the target PKC-θ kinase domain (PKC-θ KD; amino acid residues 362 to 706), C-terminal hexa-histidine tag, expressed in … (Homo sapiens (Human), UniProt Q04759 362-706, autophosphorylated at 5 or 6 residues in E. coli; sites identified: Ser695, Ser685 and Thr538 or Thr536 (numbering of full-length PKC-θ)). Description: cell-based or functional assay.
As to B1, the “appKm (steady-state kinase kinetics, saturating ATP, 100 mM NaCl)” value amounted to 6.5 µM.
The result for B2 reads 4.3 µM; that for B3, 420 µM; that for B4, 240 µM.
